According to the supplement of paper PMC7125110:
± gives the standard error. For part of these data: This sample holds only a part of the variants without activity.

B1: glmS ribozyme (parent)
chain: AUAAAAGCGCCAGAACUACAGAAAUGUAGUUGACGAGGAGGAGGUUUAUCGAAUUUUCGGCGGAUGCCUCCAAA

What was measured:
Conditions in all cases: with glucosamine-6-phosphate
[1] = variants of: B1; test: kcat; higher = faster cleavage; RNA array
Summary of the method: (§1)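 Glucosamine-6-phosphate, from 40 μM to 10 mM in HEPES/KCl/Mg(OAc)2 buffer, was flowed over sequenced MiSeq chips carrying barcoded ribozyme variants transcribed in situ by E. coli RNA polymerase. A hybridised Cy3 probe tracked the variants at 37 °C as tiles were imaged over ~14 h. kobs, kcat and KM were obtained by fitting normalised per-tile medians to exponential decays and then applying weighted Michaelis–Menten fits across concentrations.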

[2] = variants of: B1; test: self-cleavage kobs at 40 uM GlcN6P; higher = faster cleavage; RNA array
Summary of the method: as §1

[3] = variants of: B1; test: self-cleavage kobs at 160 uM GlcN6P; higher = faster cleavage; RNA array
Summary of the method: as §1

[4] = variants of: B1; test: KM; higher = weaker cofactor use; RNA array
Summary of the method: as §1

[5] = variants of: B1; test: self-cleavage kobs at 640 uM GlcN6P; higher = faster cleavage; RNA array
Summary of the method: as §1

[6] = variants of: B1; test: self-cleavage kobs at 2500 uM GlcN6P; higher = faster cleavage; RNA array
Summary of the method: as §1

[7] = variants of: B1; test: self-cleavage kobs at 10000 uM GlcN6P; higher = faster cleavage; RNA array
Summary of the method: as §1

Row | Variant | kcat [1] [s⁻¹] | self-cleavage kobs at 40 uM GlcN6P [2] [s⁻¹] | self-cleavage kobs at 160 uM GlcN6P [3] [s⁻¹] | KM [4] [µM] | self-cleavage kobs at 640 uM GlcN6P [5] [s⁻¹] | self-cleavage kobs at 2500 uM GlcN6P [6] [s⁻¹] | self-cleavage kobs at 10000 uM GlcN6P [7] [s⁻¹]
1 | U30G G60A | 1.25e-05 ± 1.8e-06 | < 1e-05 | < 1e-05 |  |  |  | 
2 | U31A G40C | 0.00121 ± 0.00017 | 3.09e-05 ± 7.3e-06 | 0.000105 ± 3e-05 | 1410 ± 380 | 0.00048 ± 0.0001 | 0.00115 ± 0.00024 | 0.00101 ± 0.00011
3 | U31A U65A | 0.00266 ± 0.00015 | 2.41e-05 ± 1.1e-05 | 9.46e-05 ± 3.5e-05 | 3820 ± 350 | 0.000399 ± 5.4e-05 | 0.00107 ± 0.00022 | 0.00191 ± 0.00022
4 | U31A U65G | 0.00228 ± 0.00054 | 3.37e-05 ± 1.5e-05 | 0.000211 ± 6.2e-05 | 2390 ± 1000 | 0.000521 ± 8.8e-05 | 0.000854 ± 0.00019 | 0.00205 ± 0.00027
5 | U31C C71G | 0.000382 ± 8.8e-05 |  |  | 1970 ± 890 | 9.1e-05 ± 1.5e-05 | 0.000213 ± 3.5e-05 | 0.000321 ± 4.9e-05
6 | U31A U56G | 0.0146 ± 0.0054 | 0.000249 ± 5.8e-05 | 0.000532 ± 0.00021 | 2950 ± 1500 | 0.00335 ± 0.00098 | 0.00579 ± 0.0015 | 0.0132 ± 0.0039
7 | U30G G66U | 0.000295 ± 2e-05 |  |  | 1760 ± 290 | 8.02e-05 ± 1.2e-05 | 0.000147 ± 3.5e-05 | 0.000256 ± 2.4e-05
8 | U30G G66C | 0.000132 ± 1.5e-05 |  |  | 1620 ± 600 |  | 9.1e-05 ± 1.7e-05 | 0.00011 ± 1.6e-05
9 | U31C G38U | < 1e-05 | < 1e-05 |  |  |  |  | < 1e-05
10 | U31C G32U | 0.000799 ± 8e-05 |  | 3.53e-05 ± 8.1e-06 | 4030 ± 600 | 0.000112 ± 9.6e-06 | 0.000281 ± 2.9e-05 | 0.000594 ± 5.8e-05
11 | U31C G32A | 0.0022 ± 0.00058 | 4.27e-05 ± 1.5e-05 | 6.8e-05 ± 1.3e-05 | 6580 ± 2400 | 0.000179 ± 2.1e-05 | 0.000604 ± 7.5e-05 | 0.00134 ± 0.00014
12 | U31A C71A | 0.00261 ± 0.001 | 8.13e-05 ± 2.1e-05 | 0.000449 ± 0.00013 |  | 0.00049 ± 0.00015 | 0.00162 ± 0.00035 | 0.00252 ± 0.00057
13 | U30G C68U | 0.00118 ± 0.00027 |  |  | 3820 ± 1500 | 0.000154 ± 3.1e-05 | 0.000642 ± 0.00015 | 0.000827 ± 0.00013
